In US20090311248A1 one finds O.D. value (450-595 nm) data, which are given here for 1 substance.

In this assay the target is E1s (HCV E1 envelope protein, aa 192-326 of the HCV polyprotein) (Hepatitis C virus (HCV)). In words: coating ELISA, E1s at 0.5 ug/ml, hybridoma supernatant. (In general: An ELISA detects its analyte on a solid surface through an enzyme-linked reagent.)

Regarding 4G2 (antibody), the O.D. value (450-595 nm) is greater than 2 O.D.
